From patent US20100239676A1, “Stable Aerosolizable Suspensions of Proteins in Ethanol” (priority 2000, published 2010)

Experiment: Stabilization of insulin suspension in 100% ethanol, activity retained by reversed phase HPLC
Type: physicochemical
Settings: pH 7.4
Method: The conical tubes were then sealed with punctured parafilm, and frozen overnight at ˜−15° C. to −20° C. […] This process was started two or three days prior to the start of the experiment. […] For each sample, there were four (4) time-points prepared. […] The diluted samples were then analyzed by reversed phase HPLC method using standard techniques known to the art. The other time-points were sealed with parafilm. Four (4) different conditions were tested: (i) & (ii) samples were maintained at 37° C. with and without shaking; (iii) samples were maintained at 40° C. with shaking; and (iv) samples were maintained at room temperature with no shaking. A Labline environmental incubator/shaker was used at 37° C. and at 40° C. while shaking at 220 rpm. […] Inversion was used to gently mix.
Percent activity retained was determined by high-performance liquid chromatography (HPLC).

Insulin: Lyophilized human insulin, supplied from Roche Biochemical Co., suspended in 200 proof ethanol
Activity Retained (%) (2.0 months, 20 °C, shaking NA): 90%
Activity Retained (%) (2.0 months, 40 °C, shaking 220 rpm): 55%
Activity Retained (%) (2.5 months, 37 °C, shaking NA): 93%
